Source: article PMC4786781

Assays:
[1] = biological target: T1, Spo0J R82A R82A (Bacillus subtilis) (UniProt P26497); assay: single-molecule PIFE kinetics, koff/kon; settings: 150 mM NaCl, kon 2.1±0.2e6 M-1 s-1, koff 0.16±0.01 s-1, Cy3-dUTP randomly incorporated, about 1 per kb, PIFE: 20 mM Tris pH 7.5, 100 ug/ml BSA, 100 mM NaCl (150 mM for Spo0J R82A Kd), flow 100 ul/min, BLItz: 20 mM Tris pH 7.5, 150 mM NaCl, 0.02% …
T1 sequence: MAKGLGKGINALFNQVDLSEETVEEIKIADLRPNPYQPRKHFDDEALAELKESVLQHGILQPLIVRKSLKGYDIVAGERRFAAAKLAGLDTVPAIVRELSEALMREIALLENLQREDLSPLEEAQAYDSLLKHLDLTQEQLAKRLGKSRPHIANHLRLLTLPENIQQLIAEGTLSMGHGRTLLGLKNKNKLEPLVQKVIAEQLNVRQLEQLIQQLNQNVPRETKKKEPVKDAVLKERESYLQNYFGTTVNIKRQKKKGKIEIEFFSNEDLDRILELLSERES

[2] = test system: HBsu (Bacillus subtilis); assay: single-molecule PIFE and DNA length, two-state model; settings: Cy3-dUTP randomly incorporated, about 1 per kb, PIFE: 20 mM Tris pH 7.5, 100 ug/ml BSA, 100 mM NaCl (150 mM for Spo0J R82A Kd), flow 100 ul/min, BLItz: 20 mM Tris pH 7.5, 150 mM NaCl, 0.02% …
[3] = biological target: T1, Spo0J R82A R82A (Bacillus subtilis); assay: single-molecule PIFE, steady state, Hill fit (n=0.8±0.2); settings: 150 mM NaCl, apparent Kd, Cy3-dUTP randomly incorporated, about 1 per kb, PIFE: 20 mM Tris pH 7.5, 100 ug/ml BSA, 100 mM NaCl (150 mM for Spo0J R82A Kd), flow 100 ul/min, BLItz: 20 mM Tris pH 7.5, 150 mM NaCl, 0.02% …

Q: 20-kb Cy3-labelled DNA was tested. Which Kd [1] did it give?
A: The Kd was 76.2 nM.

Q: What about the Kd ([2]; K1, high-affinity bending mode, first dimer) of the same substance?
A: The Kd was 13 nM.

Q: And the Kd ([2]; K2, low-affinity filament mode, second dimer)?
A: Its Kd is 390 nM.

Q: What about the Kd [3] of the same substance?
A: The Kd was 60.5 nM.
